Assay results reported in article PMC8156991, “The Profound Influence of Lipid Composition on the Catalysis of the Drug Target NADH Type II Oxidoreductase” (Membranes, 2021).

Substrate: CC1=CC(=O)c2ccccc2C1=O
Assay: cells, lysate or membranes named
Format: biochemical, Caldalkalibacillus thermarum
Details: 33% PG + 67% PE vesicles with 1% menaquinone-7 embedded as shuttle, co-substrate NADH, 20 mM MOPS, 30 mM Na2SO4, pH 7.4, 25 °C, lipid-dependent

B1: CthNDH-2 (Caldalkalibacillus thermarum type II NADH:quinone oxidoreductase) (Caldalkalibacillus thermarum TA2.A1) (protein)
chain: MSKPSIVILGAGYGGIVAALGLQKRLNYNEADITLVNKNDYHYITTELHQPAAGTMHHDQARVGIKELIDEKKIKFVKDTVVAIDREQQKVTLQNGELHYDYLVVGLGSEPETFGIEGLREHAFSINSINSVRIIRQHIEYQFAKFAAEPERTDYLTIVVGGAGFTGIEFVGELADRMPELCAEYDVDPKLVRIINVEAAPTVLPGFDPALVNYAMDVLGGKGVEFKIGTPIKRCTPEGVVIEVDGEEEEIKAATVVWTGGVRGNSIVEKSGFETMRGRIKVDPYLRAPGHENIFIVGDCALIINEENNRPYPPTAQIAIQHGENVAANLAALIRGGSMTPFKPHIRGTVASLGRNDAIGIVGGRKVYGHAASWLKKLIDMRYLYLIGGLSLVLKKGRF
Km: 21.7 µM
